Measurements taken from publication PMC3274598 (Analytical Biochemistry, 2011).

T1: RAD9 peptide (Homo sapiens, UniProt Q99638)
T1 chain: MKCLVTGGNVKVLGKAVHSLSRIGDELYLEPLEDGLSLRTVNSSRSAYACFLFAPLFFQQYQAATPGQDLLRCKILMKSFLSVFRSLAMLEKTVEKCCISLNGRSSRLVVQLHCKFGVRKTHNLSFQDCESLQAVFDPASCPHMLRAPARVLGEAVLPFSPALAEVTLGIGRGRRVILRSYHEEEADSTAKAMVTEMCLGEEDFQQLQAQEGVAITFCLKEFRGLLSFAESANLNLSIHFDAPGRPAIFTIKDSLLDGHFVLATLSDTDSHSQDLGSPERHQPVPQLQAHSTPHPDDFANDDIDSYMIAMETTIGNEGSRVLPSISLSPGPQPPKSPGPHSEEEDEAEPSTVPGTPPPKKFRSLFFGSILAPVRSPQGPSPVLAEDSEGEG

T2: ATRIP peptide (Homo sapiens, UniProt Q8WXE1)
T2 chain: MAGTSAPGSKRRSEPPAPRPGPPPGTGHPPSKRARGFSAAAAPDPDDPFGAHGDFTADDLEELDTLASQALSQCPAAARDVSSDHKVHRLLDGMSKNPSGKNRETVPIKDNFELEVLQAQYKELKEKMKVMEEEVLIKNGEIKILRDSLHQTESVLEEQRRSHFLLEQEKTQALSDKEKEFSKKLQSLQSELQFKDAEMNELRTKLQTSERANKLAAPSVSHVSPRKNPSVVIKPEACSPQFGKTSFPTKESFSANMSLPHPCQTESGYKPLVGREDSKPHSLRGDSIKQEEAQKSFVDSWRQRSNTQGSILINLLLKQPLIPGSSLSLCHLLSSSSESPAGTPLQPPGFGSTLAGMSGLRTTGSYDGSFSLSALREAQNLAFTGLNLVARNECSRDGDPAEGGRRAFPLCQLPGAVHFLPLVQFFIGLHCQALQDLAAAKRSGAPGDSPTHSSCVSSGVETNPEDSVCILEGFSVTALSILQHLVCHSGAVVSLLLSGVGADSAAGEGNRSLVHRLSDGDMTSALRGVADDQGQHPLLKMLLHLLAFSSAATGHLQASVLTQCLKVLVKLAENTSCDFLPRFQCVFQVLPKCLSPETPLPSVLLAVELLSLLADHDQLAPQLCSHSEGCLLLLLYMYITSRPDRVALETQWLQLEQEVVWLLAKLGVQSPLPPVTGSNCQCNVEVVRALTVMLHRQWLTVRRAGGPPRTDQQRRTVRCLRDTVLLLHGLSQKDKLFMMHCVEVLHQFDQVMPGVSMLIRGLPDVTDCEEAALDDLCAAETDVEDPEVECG


Key:
RAD9 peptide = biological target: T1, RAD9 peptide; assay: anisotropy
ATRIP peptide = biological target: T2, ATRIP peptide; assay: NMR
[1] = biological target: N-terminal OB-fold domain of RPA70 (RPA70N) (human, UniProt P27694 1-120); assay: fluorescence polarisation

| Kd (RAD9 peptide) | Kd (ATRIP peptide) | IC50 [1] | Binder |
| --- | --- | --- | --- |
| 51 µM | 48 µM |  | RPA70N 70N (protein) MVGQLSEGAIAAIMQKGDTNIKPILQVINIRPITTGNSPPRYRLLMSDGLNTLSSFMLATQLNPLVEEEQLSSNCVCQIHRFIVNTLKDGRRVVILMELEVLKSAEAVGVKIGNPVPYNE |
|  |  | 102 ± 13.6 µM | Ac-DFANDDIDSYMIAME-NH2 [RAD9 peptide (Ac-DFANDDIDSYMIAME-NH2)] |
